Measured values published in patent US20210032352A1 (ANTERA THERAPEUTICS, published 2021).

How the values were obtained:
Assay in all cases: kinetic table (called BLI in paragraph 35); quantity name and unit not printed in the table: KD in M follows from FIG. 12A
[1] = target: T1, FZD2 CRD, Fc-tagged (human, UniProt Q14332 24-190)
T1 construct: domain: CRD; Bought; not shown: Fc tag of the purchased fusion

[2] = target: T2, FZD1 CRD, Fc-tagged (human, UniProt Q9UP38 70-250)
T2 construct: domain: CRD; Bought; not shown: Fc tag of the purchased fusion
T2 sequence (Q9UP38 70-250): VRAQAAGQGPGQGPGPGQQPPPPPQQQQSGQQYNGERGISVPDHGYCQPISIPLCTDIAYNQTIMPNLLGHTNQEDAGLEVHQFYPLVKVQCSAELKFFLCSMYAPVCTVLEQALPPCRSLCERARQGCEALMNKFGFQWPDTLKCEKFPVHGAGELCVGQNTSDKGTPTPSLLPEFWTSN

[3] = target: FZD7 CRD, Fc-tagged (human, UniProt O75084 33-185)
[4] = target: T3, human LRP6 ECD, Fc-tagged (human, UniProt O75581 20-1370)
T3 construct: extracellular domain; Bought; also called LRP co-receptor; not shown: Fc tag of the purchased fusion
T3 sequence (looked up): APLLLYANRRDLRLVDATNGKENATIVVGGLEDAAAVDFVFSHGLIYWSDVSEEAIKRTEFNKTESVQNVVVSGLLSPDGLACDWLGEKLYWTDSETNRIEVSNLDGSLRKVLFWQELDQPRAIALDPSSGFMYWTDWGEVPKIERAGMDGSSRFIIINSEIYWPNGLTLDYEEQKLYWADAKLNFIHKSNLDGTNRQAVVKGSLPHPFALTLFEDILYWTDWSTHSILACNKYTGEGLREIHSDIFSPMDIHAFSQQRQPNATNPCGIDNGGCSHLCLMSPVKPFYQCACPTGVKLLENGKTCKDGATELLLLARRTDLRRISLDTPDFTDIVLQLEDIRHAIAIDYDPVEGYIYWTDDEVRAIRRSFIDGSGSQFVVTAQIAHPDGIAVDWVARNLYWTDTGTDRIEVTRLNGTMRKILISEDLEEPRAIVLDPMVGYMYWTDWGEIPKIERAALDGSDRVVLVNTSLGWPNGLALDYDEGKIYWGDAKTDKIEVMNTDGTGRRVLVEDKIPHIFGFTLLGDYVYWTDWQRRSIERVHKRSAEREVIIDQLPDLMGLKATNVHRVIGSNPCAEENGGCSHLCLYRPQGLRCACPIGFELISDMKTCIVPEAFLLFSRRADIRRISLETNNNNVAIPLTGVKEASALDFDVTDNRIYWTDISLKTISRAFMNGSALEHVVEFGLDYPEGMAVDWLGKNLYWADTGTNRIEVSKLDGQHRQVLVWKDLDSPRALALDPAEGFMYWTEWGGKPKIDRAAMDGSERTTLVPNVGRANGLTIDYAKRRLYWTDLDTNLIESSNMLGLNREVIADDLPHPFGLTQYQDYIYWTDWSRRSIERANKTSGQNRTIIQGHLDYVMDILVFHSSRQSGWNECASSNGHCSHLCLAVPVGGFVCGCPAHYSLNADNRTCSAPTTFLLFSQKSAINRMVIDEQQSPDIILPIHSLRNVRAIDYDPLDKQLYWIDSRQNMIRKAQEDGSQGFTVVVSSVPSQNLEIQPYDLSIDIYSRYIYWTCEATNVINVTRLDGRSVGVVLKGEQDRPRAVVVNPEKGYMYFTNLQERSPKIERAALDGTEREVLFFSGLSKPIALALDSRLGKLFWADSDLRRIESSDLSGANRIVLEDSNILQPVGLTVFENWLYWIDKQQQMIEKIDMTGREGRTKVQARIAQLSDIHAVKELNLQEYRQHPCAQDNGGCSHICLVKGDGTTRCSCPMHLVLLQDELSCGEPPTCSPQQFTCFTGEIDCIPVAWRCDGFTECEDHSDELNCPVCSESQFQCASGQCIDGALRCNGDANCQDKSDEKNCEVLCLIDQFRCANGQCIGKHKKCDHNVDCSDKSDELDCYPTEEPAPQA

Kd [1]: 0.15 nM | Kd [2]: 0.13 nM | Kd [3]: 0.1 nM | Kd [4]: 9.7 nM
B1: F^P*+P*-L6^1*+3* (bispecific antibody)
chain 1: DIQMTQSPSSLSASVGDRVTITCRASQSVSSAVAWYQQKPGKAPKLLIYSASSLYSGVPSRFSGSRSGTDFTLTISSLQPEDFATYYCQQGVYLFTFGQGTKVEIKGTTAASGSSGGSSSGAEVQLVESGGGLVQPGGSLRLSCAASGFNIGSSSIHWVRQAPGKGLEWVASIYSAFASTSYADSVKGRFTISADTSKNTAYLQMNSLRAEDTAVYYCARYHFPFGFALDYWGQGTLVTVSSLEDKTHTKVEPKTSDKTHTCPPCPAPELLGGPSVFLFPPKPKDTLMISRTPEVTCVVVDVSHEDPEVKFNWYVDGVEVHNAKTKPREEQYNSTYRVVSVLTVLHQDWLNGKEYKCKVSNKALPAPIEKTISKAKGQPREPMVFDLPPSREEMTKNQVSLWCMVKGFYPSDIAVEWESNGQPENNYKTTPPVLDSDGSFFLYSKLTVDKSRWQQGNVFSCSVMHEALHNHYTQKSLSLSPGKSGSETPGTSESATPESGGGDIQMTQSPSSLSASVGDRVTITCRASQSVSSAVAWYQQKPGKAPKLLIYSASSLYSGVPSRFSGSRSGTDFTLTISSLQPEDFATYYCQQYSWGPFTFGQGTKVEIKGTTAASGSSGGSSSGAEVQLVESGGGLVQPGGSLRLSCAASGFNISYSSIHWVRQAPGKGLEWVAYISSYYGYTYYADSVKGRFTISADTSKNTAYLQMNSLRAEDTAVYYCARAHYFPWAGAMDYWGQGTLVTVSS
chain 2: DIQMTQSPSSLSASVGDRVTITCRASQSVSSAVAWYQQKPGKAPKLLIYSASSLYSGVPSRFSGSRSGTDFTLTISSLQPEDFATYYCQQGVYLFTFGQGTKVEIKGTTAASGSSGGSSSGAEVQLVESGGGLVQPGGSLRLSCAASGFNIGSSSIHWVRQAPGKGLEWVASIYSAFASTSYADSVKGRFTISADTSKNTAYLQMNSLRAEDTAVYYCARYHFPFGFALDYWGQGTLVTVSSLEDKTHTKVEPKSSDKTHNCPPCPAPELLGGPSVFLFPPKPKDTLMISRTPEVTCVVVDVSHEDPEVKFNWYVDGVEVHNAKTKPREEQYNSTYRVVSVLTVLHQDWLNGKEYKCKVSNKALPAPIEKTISKAKGQPREPQVYTLPPIRELMTSNQVSLSCAVKGFYPSDIAVEWESNGQPENNYKTTPPVLDSDGSFFLVSKLTVDKSRWQQGNVFSCSVMHEALHNHYTQKSLSLSPGKSGSETPGTSESATPESGGGDIQMTQSPSSLSASVGDRVTITCRASQSVSSAVAWYQQKPGKAPKLLIYSASSLYSGVPSRFSGSRSGTDFTLTISSLQPEDFATYYCQQYYWPITFGQGTKVEIKGTTAASGSSGGSSSGAEVQLVESGGGLVQPGGSLRLSCAASGFNISSYYIHWVRQAPGKGLEWVASIYSSYGYTSYADSVKGRFTISADTSKNTAYLQMNSLRAEDTAVYYCARTVRGSKKPYFSGWAMDYWGQGTLVTVSS
